Experimental data published in patent publication US20220062371.

How the values were obtained:
[1] = tested on: Compound 3, AF-Arg-Phe-Lys(PEG4-Mal-Cys-Ac)-OH
[2] = tested on: Compound 13, Ac-Cys-Mal-PEG4-Phe-Lys-Lys(AF)-Phe-OH
[3] = tested on: Compound 11, Arg-PEG4-Phe-Arg-Ser(CO-CPT)-Phe-OH
[4] = tested on: Compound 10, Arg-PEG4-Phe-Arg-Dab(CO-CPT)-Phe-OH
[5] = tested on: Compound 5, DM1-Mal-Phe-Lys-Lys(PEG4-Mal-Cys-Ac)-Phe-OH
[6] = tested on: Compound 6, DM1-Mal-Phe-Cit-Lys(PEG4-Mal-Cys-Ac)-Phe-OH
[7] = tested on: Compound 12, Ac-Cys-Mal-PEG4-Phe-Lys-Lys(Mal-DM1)-Phe-OH
[8] = tested on: Compound 23, DM1-Mcc-Cit-Lys(PEG5-Ma-Cys-Ac)-Tyr-OH
[9] = tested on: Compound 27, Ac-Cys-Ma-PEG5-Phe-Cit-Lys(Mcc-DM1)-Tyr-OH
[10] = tested on: Compound 29, Ac-Cys-Mal-PEG4-[Phe-Lys-Lys(Mal-DM1)-Phe]2-OH
[11] = tested on: Compound 30, Ac-Cys-Mal-PEG4-Phe-Arg-Lys(Mal-DM1)-Arg-Lys(AF)-Phe-OH
[12] = tested on: Compound 7, DM1-Mal-Phe-Cit-Phe-Lys(PEG4-Mal-Cys-Ac)-OH
[13] = tested on: Compound 9, Arg-PEG4-Phe-Arg-Dap(CO-CPT)-Phe-OH
[14] = tested on: Compound 15, Arg-PEG4-Phe-Arg-Glu(Sar-OCPT)-Arg-OH
[15] = tested on: Compound 17, Arg-PEG4-Phe-Arg-[Glu(Sar-OCPT)-Phe]2-OH
[16] = tested on: Compound 16, Arg-PEG4-Phe-Arg-Glu(Sar-OCPT)-Arg-Phe-Arg-OH
[17] = tested on: Compound 22, DM1-Mcc-Phe-Cit-Lys(PEG5-Ma-Cys-Ac)-Tyr-OH
[18] = tested on: Compound 18, Arg-PEG4-[Phe-Arg-Glu(Sar-OCPT)-Arg]2-OH
[19] = tested on: Compound 19, AF-Cit-Lys(PEG4-Mal-Cys-Ac)-Phe-OH
[20] = tested on: Compound 1, AF-Arg-Lys(PEG4-Mal-Cys-Ac)-Phe-OH
[21] = tested on: Compound 31, AF-Cit-Lys(Mal-DM1)-Phe-Lys(PEG4-Mal-Cys-Ac)-Phe-OH
[22] = tested on: Compound 28, Ac-Cys-Mal-PEG4-Phe-Lys-Lys(Mal-DM1)-Phe-Phe-Lys-OH
[23] = tested on: Compound 8, Arg-PEG4-Phe-Arg-Glu(Sar-OCPT)-Phe-OH
[24] = tested on: Compound 32, Ac-Cys-Mal-[PEG5-Lys(AF-Cit-Lys(Y)-Phe-OH)]2-Gly-NH2

Recombinant human Cathepsin B
T1/2 Compound (min), Cat B-induced cleavage [1]: 1.4 min
T1/2 Compound (min), Cat B-induced cleavage [2]: 1.6 min
T1/2 Compound (min), Cat B-induced cleavage [3]: 2.2 min
T1/2 Compound (min), Cat B-induced cleavage [4]: 0.9 min
T1/2 Compound (min), Cat B-induced cleavage [5]: 0.6 min
T1/2 Compound (min), Cat B-induced cleavage [6]: 0.3 min
T1/2 Compound (min), Cat B-induced cleavage [7]: 1.5 min
T1/2 Compound (min), Cat B-induced cleavage [8]: 0.0004 min
T1/2 Compound (min), Cat B-induced cleavage [9]: 0.06 min
T1/2 Compound (min), Cat B-induced cleavage [10]: 2.4 min
T1/2 Compound (min), Cat B-induced cleavage [11]: 1.1 min
T1/2 Compound (min), Cat B-induced cleavage [12]: 1.2 min
T1/2 Compound (min), Cat B-induced cleavage [13]: 4.5 min
Cat B-induced cleavage (in vitro enzymatic cleavage assay) [14]: Cat B-induced cleavage of compound 15 releases a second C-terminal dipeptide-drug unit H-Glu(Sar-OCPT)-Arg-OH
Cat B-induced cleavage (in vitro enzymatic cleavage assay) [15]: Cat B-induced cleavage of compound 17 rapidly released C-terminal dipeptide-drug unit Glu(Sar-OCPT)-Phe-OH and compound 8 as an intermediate
Cat B-induced cleavage (in vitro enzymatic cleavage assay) [16]: compound 16 as a first intermediate, which is in turn rapidly cleaved via exo-Cat B mechanism to release compound 15 as a second intermediate
T1/2 Compound (min), Cat B-induced cleavage [17]: 0.06 min
Cat B-induced cleavage (in vitro enzymatic cleavage assay) [18]: Cat B-induced cleavage of compound 18 rapidly released the C-terminal dipeptide-drug unit H-Glu(Sar-OCPT)-Arg-OH and compound 16 as a first intermediate
T1/2 Compound (min), Cat B-induced cleavage [19]: 1.1 min
T1/2 Compound (min), Cat B-induced cleavage [20]: 1.5 min
T1/2 Compound (min), Cat B-induced cleavage [21]: 1.08 min
T1/2 Compound (min), Cat B-induced cleavage [22]: 0.3 min
Cat B-induced cleavage (in vitro enzymatic cleavage assay) [23]: compound 8 was rapidly cleaved to release the C-terminal dipeptide-drug unit H-Glu(Sar-OCPT)-Phe-OH
T1/2 Compound (min), Cat B-induced cleavage [23]: 2.2 min
T1/2 Compound (min), Cat B-induced cleavage [24]: 0.98 min
